Assay results reported in patent US20150344570A1 (published 2015).

T1: FcγRIIa R (human, UniProt P12318 34-217)
T1 construct: extracellular domain; also called FcgRIIa R type; 2aR
T1 sequence (looked up): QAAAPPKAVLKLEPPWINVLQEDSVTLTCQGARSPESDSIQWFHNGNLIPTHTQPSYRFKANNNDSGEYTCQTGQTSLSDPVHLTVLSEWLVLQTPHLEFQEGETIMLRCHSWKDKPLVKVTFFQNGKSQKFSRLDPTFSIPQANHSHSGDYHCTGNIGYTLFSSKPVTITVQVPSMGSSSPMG


Target: T1, FcγRIIa R
Test: SPR (Biacore), captured antibody, FcγR as analyte; relative binding activity
Protocol: Analysis of interaction between objective antibody and the FcγR was carried out using Biacore T100 (GE Healthcare). HBS-EP+ (GE Healthcare) was used as the running buffer, and the measurement temperature was set to 25° C. Chips produced by immobilizing the antigen peptide by the amine coupling method to a Series S Sencor Chip CM5 (GE Healthcare), or alternatively, chips produced by allowing preliminarily biotinylated antigen peptides to interact with and immobilize onto a Series S Sensor Chip SA (certified) (GE Healthcare) were used. Antibodies of interest were captured onto an antigen peptide-immobilized chip, and allowed to interact to each FcγR diluted with running buffer. To regenerate and repeatedly use the chip, the antibodies captured on the chip were washed off by reacting 10 mM glycine-HCl, pH 1.5.

Row | Ho/Con_2aR | Binder
1 | 106 % (GpH7-B3/GpL16-k0 = 100) | GpH7-B3 variant H268_15Y/GpL16-k0 (antibody, human IgG1, kappa, also called Ho Ab H268_15Y) heavy: not shown light: DIVMTQSPLSLPVTPGEPASISCQASESLVHSNRNTYLHWYLQKPGQSPQLLIYKVSNRFSGVPDRFSGSGSGTDFTLKISRVEAEDVGVYYCSQNTHVPPTFGQGTKVEIERTVAAPSVFIFPPSDEQLKSGTASVVCLLNNFYPREAKVQWKVDNALQSGNSQESVTEQDSKDSTYSLSSTLTLSKADYEKHKVYACEVTHQGLSSPVTKSFNRGEC
2 | 93.4 % (GpH7-B3/GpL16-k0 = 100) | GpH7-B3 variant H268_11K/GpL16-k0 (antibody, human IgG1, kappa, also called Ho Ab H268_11K) heavy: not shown light: DIVMTQSPLSLPVTPGEPASISCQASESLVHSNRNTYLHWYLQKPGQSPQLLIYKVSNRFSGVPDRFSGSGSGTDFTLKISRVEAEDVGVYYCSQNTHVPPTFGQGTKVEIERTVAAPSVFIFPPSDEQLKSGTASVVCLLNNFYPREAKVQWKVDNALQSGNSQESVTEQDSKDSTYSLSSTLTLSKADYEKHKVYACEVTHQGLSSPVTKSFNRGEC
3 | 44.4 % (GpH7-B3/GpL16-k0 = 100) | GpH7-B3 variant G237_13S/GpL16-k0 (antibody, human IgG1, kappa, also called Ho Ab G237_13S) heavy: not shown light: DIVMTQSPLSLPVTPGEPASISCQASESLVHSNRNTYLHWYLQKPGQSPQLLIYKVSNRFSGVPDRFSGSGSGTDFTLKISRVEAEDVGVYYCSQNTHVPPTFGQGTKVEIERTVAAPSVFIFPPSDEQLKSGTASVVCLLNNFYPREAKVQWKVDNALQSGNSQESVTEQDSKDSTYSLSSTLTLSKADYEKHKVYACEVTHQGLSSPVTKSFNRGEC
4 | 133 % (GpH7-B3/GpL16-k0 = 100) | GpH7-B3 variant K326_04F/GpL16-k0 (antibody, human IgG1, kappa, also called Ho Ab K326_04F) heavy: not shown light: DIVMTQSPLSLPVTPGEPASISCQASESLVHSNRNTYLHWYLQKPGQSPQLLIYKVSNRFSGVPDRFSGSGSGTDFTLKISRVEAEDVGVYYCSQNTHVPPTFGQGTKVEIERTVAAPSVFIFPPSDEQLKSGTASVVCLLNNFYPREAKVQWKVDNALQSGNSQESVTEQDSKDSTYSLSSTLTLSKADYEKHKVYACEVTHQGLSSPVTKSFNRGEC
5 | 14.3 % (GpH7-B3/GpL16-k0 = 100) | GpH7-B3 variant G237_19Q/GpL16-k0 (antibody, human IgG1, kappa, also called Ho Ab G237_19Q) heavy: not shown light: DIVMTQSPLSLPVTPGEPASISCQASESLVHSNRNTYLHWYLQKPGQSPQLLIYKVSNRFSGVPDRFSGSGSGTDFTLKISRVEAEDVGVYYCSQNTHVPPTFGQGTKVEIERTVAAPSVFIFPPSDEQLKSGTASVVCLLNNFYPREAKVQWKVDNALQSGNSQESVTEQDSKDSTYSLSSTLTLSKADYEKHKVYACEVTHQGLSSPVTKSFNRGEC
6 | 122 % (GpH7-B3/GpL16-k0 = 100) | GpH7-B3 variant H268_01G/GpL16-k0 (antibody, human IgG1, kappa, also called Ho Ab H268_01G) heavy: not shown light: DIVMTQSPLSLPVTPGEPASISCQASESLVHSNRNTYLHWYLQKPGQSPQLLIYKVSNRFSGVPDRFSGSGSGTDFTLKISRVEAEDVGVYYCSQNTHVPPTFGQGTKVEIERTVAAPSVFIFPPSDEQLKSGTASVVCLLNNFYPREAKVQWKVDNALQSGNSQESVTEQDSKDSTYSLSSTLTLSKADYEKHKVYACEVTHQGLSSPVTKSFNRGEC
7 | 98.5 % (GpH7-B3/GpL16-k0 = 100) | GpH7-B3 variant H268_12R/GpL16-k0 (antibody, human IgG1, kappa, also called Ho Ab H268_12R) heavy: not shown light: DIVMTQSPLSLPVTPGEPASISCQASESLVHSNRNTYLHWYLQKPGQSPQLLIYKVSNRFSGVPDRFSGSGSGTDFTLKISRVEAEDVGVYYCSQNTHVPPTFGQGTKVEIERTVAAPSVFIFPPSDEQLKSGTASVVCLLNNFYPREAKVQWKVDNALQSGNSQESVTEQDSKDSTYSLSSTLTLSKADYEKHKVYACEVTHQGLSSPVTKSFNRGEC
8 | 73.6 % (GpH7-B3/GpL16-k0 = 100) | GpH7-B3 variant G237_18N/GpL16-k0 (antibody, human IgG1, kappa, also called Ho Ab G237_18N) heavy: not shown light: DIVMTQSPLSLPVTPGEPASISCQASESLVHSNRNTYLHWYLQKPGQSPQLLIYKVSNRFSGVPDRFSGSGSGTDFTLKISRVEAEDVGVYYCSQNTHVPPTFGQGTKVEIERTVAAPSVFIFPPSDEQLKSGTASVVCLLNNFYPREAKVQWKVDNALQSGNSQESVTEQDSKDSTYSLSSTLTLSKADYEKHKVYACEVTHQGLSSPVTKSFNRGEC
9 | 105 % (GpH7-B3/GpL16-k0 = 100) | GpH7-B3 variant I332_06M/GpL16-k0 (antibody, human IgG1, kappa, also called Ho Ab I332_06M) heavy: not shown light: DIVMTQSPLSLPVTPGEPASISCQASESLVHSNRNTYLHWYLQKPGQSPQLLIYKVSNRFSGVPDRFSGSGSGTDFTLKISRVEAEDVGVYYCSQNTHVPPTFGQGTKVEIERTVAAPSVFIFPPSDEQLKSGTASVVCLLNNFYPREAKVQWKVDNALQSGNSQESVTEQDSKDSTYSLSSTLTLSKADYEKHKVYACEVTHQGLSSPVTKSFNRGEC
10 | 110 % (GpH7-B3/GpL16-k0 = 100) | GpH7-B3 variant H268_20W/GpL16-k0 (antibody, human IgG1, kappa, also called Ho Ab H268_20W) heavy: not shown light: DIVMTQSPLSLPVTPGEPASISCQASESLVHSNRNTYLHWYLQKPGQSPQLLIYKVSNRFSGVPDRFSGSGSGTDFTLKISRVEAEDVGVYYCSQNTHVPPTFGQGTKVEIERTVAAPSVFIFPPSDEQLKSGTASVVCLLNNFYPREAKVQWKVDNALQSGNSQESVTEQDSKDSTYSLSSTLTLSKADYEKHKVYACEVTHQGLSSPVTKSFNRGEC
11 | 105 % (GpH7-B3/GpL16-k0 = 100) | GpH7-B3 variant H268_03V/GpL16-k0 (antibody, human IgG1, kappa, also called Ho Ab H268_03V) heavy: not shown light: DIVMTQSPLSLPVTPGEPASISCQASESLVHSNRNTYLHWYLQKPGQSPQLLIYKVSNRFSGVPDRFSGSGSGTDFTLKISRVEAEDVGVYYCSQNTHVPPTFGQGTKVEIERTVAAPSVFIFPPSDEQLKSGTASVVCLLNNFYPREAKVQWKVDNALQSGNSQESVTEQDSKDSTYSLSSTLTLSKADYEKHKVYACEVTHQGLSSPVTKSFNRGEC
